# Results reported in paper PMC6593402, “The Structure of an Injectisome Export Gate Demonstrates Conservation of Architecture in the Core Export Gate between Flagellar and Virulence Type III Secretion Systems” (mBio, 2019).
# “And” between values parts separate entries of the source, which are not always exact repeats. Equal entries are not always repeated.
# T1: Salmonella enterica serovar Typhimurium FliR (Salmonella enterica serovar Typhimurium, UniProt P54702 1-264)
# T1 construct: FliR, flagellar export gate component, Salmonella enterica serovar Typhimurium; expressed from the complete operon; 'full length' rests on the words 'the same strategy of expression of the complete operon'; source: purified from membranes
# T1 sequence: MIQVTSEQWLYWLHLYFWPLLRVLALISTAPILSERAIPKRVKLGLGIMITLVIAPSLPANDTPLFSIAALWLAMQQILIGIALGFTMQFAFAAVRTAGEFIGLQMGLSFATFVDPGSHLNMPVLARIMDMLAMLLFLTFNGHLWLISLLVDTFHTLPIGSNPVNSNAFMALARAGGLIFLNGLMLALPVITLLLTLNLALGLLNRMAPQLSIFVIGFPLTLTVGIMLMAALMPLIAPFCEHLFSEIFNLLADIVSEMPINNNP
# B1: Salmonella enterica serovar Typhimurium FliQ (natural protein)
# chain: MTPESVMMMGTEAMKVALALAAPLLLVALITGLIISILQAATQINEMTLSFIPKIVAVFIAIIVAGPWMLNLLLDYVRTLFSNLPYIIG
# notes: FliQ, flagellar export gate component, Salmonella enterica serovar Typhimurium; expressed from the complete operon; 'full length' rests on the words 'the same strategy of expression of the complete operon'; source: purified from membranes
# B2: Salmonella enterica serovar Typhimurium FliP (natural protein)
# chain: QLPGLISQPLAGGGQSWSLSVQTLVFITSLTFLPAILLMMTSFTRIIIVFGLLRNALGTPSAPPNQVLLGLALFLTFFIMSPVIDKIYVDAYQPFSEQKISMQEALDKGAQPLRAFMLRQTREADLALFARLANSGPLQGPEAVPMRILLPAYVTSELKTAFQIGFTIFIPFLIIDLVIASVLMALGMMMVPPATIALPFKLMLFVLVDGWQLLMGSLAQSFYS
# notes: FliP, flagellar export gate component, Salmonella enterica serovar Typhimurium; expressed from the complete operon; source: purified from membranes
# B3: Shigella flexneri SctS (Spa9) (natural protein)
# chain: MSDIVYMGNKALYLILIFSLWPVGIATVIGLSIGLLQTVTQLQEQTLPFGIKLIGVSISLLLLSGWYGEVLLSFCHEIMFLIKSGV
# notes: Spa9 (SctS), export gate component of the Shigella flexneri virulence type III secretion system; expressed from the complete operon (Spa24/Spa9/Spa29); Two to four copies stand in the SctRST complexes; 'full length' rests on the words 'expression of the complete operon'; source: E. coli BL21, co-expressed from plasmid pT12_Spa24929, membranes dissolved in 1% LMNG, purified (StrepTrap, SEC)
# Experiments:
# [1] = molecular target: the molecule itself; experiment: cryo-EM structure; re-refinement in RELION-3 of the original S. Typhimurium FliPQR single-particle data of ref. 17 (particle polishing, per-particle CTF refinement), 3.65 Å; coordinates remodeled and re-refined
# [2] = molecular target: T1, Salmonella enterica serovar Typhimurium …; experiment: as above; settings: both partners purified
# [3] = molecular target: B2; experiment: as above; settings: both partners purified
# [4] = molecular target: the molecule itself; experiment: cryo-EM structure; SctRST co-expressed from the operon in E. coli, complex purified by the Dual-Strep tag on SctT and SEC; 0.01% LMNG in TBS (100 mM Tris, 150 mM NaCl, 1 mM EDTA, pH 8), 8.4 mg/ml; single-particle reconstruction at 3.5 Å, with further 3D classification of the particle set
Binder,binding result [1],binding result [2],binding result [3],stoichiometry N [4]
B1,binds,binds,binds,–
B2,binds,binds,–,–
B3,–,–,–,2 and 3
